Laboratory results reported in US20110111406A1 (published 2011).

Molecular target: T1, soluble mouse IL-31 receptor (mouse, UniProt Q8K5B1 19-499)
T1 construct: Soluble form
T1 sequence (looked up): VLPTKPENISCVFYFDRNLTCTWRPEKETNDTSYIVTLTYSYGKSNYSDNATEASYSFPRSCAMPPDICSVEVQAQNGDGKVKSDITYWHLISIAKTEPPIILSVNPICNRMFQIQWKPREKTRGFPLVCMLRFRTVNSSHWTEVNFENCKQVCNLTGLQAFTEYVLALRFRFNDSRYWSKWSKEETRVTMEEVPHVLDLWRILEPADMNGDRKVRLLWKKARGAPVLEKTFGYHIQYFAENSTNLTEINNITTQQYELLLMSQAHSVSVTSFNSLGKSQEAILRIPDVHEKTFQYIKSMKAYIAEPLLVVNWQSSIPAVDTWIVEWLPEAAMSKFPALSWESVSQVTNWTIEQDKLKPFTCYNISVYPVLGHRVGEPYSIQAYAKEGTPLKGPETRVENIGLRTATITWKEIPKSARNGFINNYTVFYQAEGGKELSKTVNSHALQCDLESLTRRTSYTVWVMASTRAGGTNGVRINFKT
Test: Biacore T100, soluble mouse IL-31 receptor as analyte; KD(pH 5.5)/KD(pH 7.4) compared with Anti-IL31R wild type
Procedure: Kinetic analysis of antigen-antibody reactions at pH 5.5 and pH 7.4 was carried out using Biacore T100 (GE Healthcare) for the two types of antibodies prepared as mentioned above: Anti-IL31R wild type and Anti-IL31R clone 1 (buffer: DPBS(−) (pH 7.4 or pH 5.5), 150 mM NaCl, 0.01% Tween 20, 0.02% NaN₃). The antibodies were bound to a sensor chip on which recomb-protein A/G (Pierce) was immobilized by amine coupling, and then the soluble mouse IL-31 receptor (prepared according to the method described in WO 2007/142325) adjusted to an appropriate concentration was injected therein as an analyte. All the measurements were carried out at 25° C. Association rate constants kₐ (1/Ms) and dissociation rate constants kd (1/s) were calculated using Biacore T100 Evaluation Software (GE Healthcare), and dissociation constants KD (M) were calculated based on those values (Table 16). Furthermore, the ratio of affinity at pH 5.5 and pH 7.4 was calculated for each clone to evaluate the pH-dependent binding.

B1: Anti-IL31R clone 1 (antibody, human IgG1, lambda, V domains shown)
VH: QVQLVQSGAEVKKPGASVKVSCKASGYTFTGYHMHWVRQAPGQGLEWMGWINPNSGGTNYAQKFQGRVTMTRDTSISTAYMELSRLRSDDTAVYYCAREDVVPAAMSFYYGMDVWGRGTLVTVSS
VL: LPVLTQPPSVSVAPGQTARITCGGNNIGSKTVYWYQQEPGQAPVLVVYDDTDRPAGIPERFSGANSGNTATLTISRVEAGDEADYYCQVWDSSTDHGVFGGGTKLTVLG
- pH-dependent binding ability relative to WT: ~300 times
